Source: article PMC8651787, “Tankyrase-1-mediated degradation of Golgin45 regulates glycosyltransferase trafficking and protein glycosylation in Rab2-GTP-dependent manner” (Communications Biology, 2021)

Legend:
TNKS1-Arc1 (183–335aa) [1] = biological target: T1, TNKS1-Arc1 (183–335aa) (human, UniProt O95271 183-335); experiment: pull-down; 150 μg GST fusion protein on Glutathione-Sepharose 4B beads; 0.1 μM prey protein; 25 mM Hepes pH 7.4, 150 mM NaOAc, 0.2% Triton, 1 mM DTT; 4 °C, 2 h; western blot; details: both partners purified
T1 construct: human Tankyrase-1 (TNKS1), ARC (Ankyrin Repeat Cluster) domain 1, residues 183-335; pET24b plasmid; also called Arc I; ArcI; source: E. coli BL21 (DE3), purified (Ni-NTA Agarose); not shown: His6, C-terminal, kept
T1 sequence (looked up): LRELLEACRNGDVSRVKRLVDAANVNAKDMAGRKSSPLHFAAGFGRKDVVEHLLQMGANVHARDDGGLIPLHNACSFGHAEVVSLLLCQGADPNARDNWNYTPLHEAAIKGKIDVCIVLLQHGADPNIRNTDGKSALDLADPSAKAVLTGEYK

TNKS1-Arc1 (183–335aa) [2] = biological target: T1, TNKS1-Arc1 (183–335aa); experiment: BLI; Octet RED96; GST fusion proteins loaded on GST biosensors at 10 ug/ml; TNKS1-Arc1 as analyte (0.16-4.56 μM); 25 °C; 25 mM Hepes pH 7.4, 150 mM NaOAc, 0.2% Triton, 1 mM DTT; steady-state fit; details: both partners purified

| Binder | binding result (TNKS1-Arc1 (183–335aa) [1]) | Kd (TNKS1-Arc1 (183–335aa) [2]) [nM] |
| --- | --- | --- |
| GST-Golgin45 N70 S49D (domain or fragment, human, UniProt Q9H2G9 1-70, looked up, Golgin45 (BLZF1), N-terminal residues 1-70, phospho-mimicking S49D in the Cdc2 consensus 49SPWK52; also called GST-Golgin45 S49D mutant; source: E. coli BL21 (DE3), purified (Glutathione HiCap Matrix)) MTTKNLETKVTVTSSPIRGAGDGMETEEPPKSVEVTSGVQSRKHHSLQDPWKKAVPSESPGVLQLGKMLT | binds | – |
| GST-Golgin45 N70 S15D (domain or fragment, human, UniProt Q9H2G9 1-70, looked up, Golgin45 (BLZF1), N-terminal residues 1-70, phospho-mimicking S15D in the Cdc2 consensus 15SPIR18; also called S15D mutated GST-Golgin45; Golgin45 S15D mutant; source: E. coli BL21 (DE3), purified (Glutathione HiCap Matrix)) MTTKNLETKVTVTSDPIRGAGDGMETEEPPKSVEVTSGVQSRKHHSLQSPWKKAVPSESPGVLQLGKMLT | – | 2780 ± 80 |
| GST-Golgin45 N-terminal domain (amino acid 1–70) (domain or fragment, human, UniProt Q9H2G9 1-70, looked up, Golgin45 (BLZF1), N-terminal residues 1-70; pGEX-6p-1 plasmid; also called GST-Golgin45 N70 wt; Golgin45 N70 WT; source: E. coli BL21 (DE3), purified (Glutathione HiCap Matrix)) MTTKNLETKVTVTSSPIRGAGDGMETEEPPKSVEVTSGVQSRKHHSLQSPWKKAVPSESPGVLQLGKMLT | – | ~1460 |
